{
  "source": "patent US20240043869A1",
  "target": "rAAV9 vector (AAV9 capsid: full, intermediate and empty capsids) comprising a mini-dystrophin transgene (adeno-associated virus serotype 9 (AAV9))",
  "assay": "affinity chromatography lifecycle study, unbound vg in flow through, resin challenge 7.5x10^13 vg/mL resin",
  "data": [
    {"substance": "POROS CaptureSelect AAV9 affinity resin ligand (VHH)", "values": [
      {"measurement": "% unbound vg", "result": "< 2", "unit": "%"}
    ]}
  ]
}
